# In patent publication US20080058275, “Rna Interferases And Methods Of Use Thereof” (published 2008):
# Key:
# (His)6MazE(K7A) = (His)6MazE(K7A) (Escherichia coli, UniProt P0AE72 SEQ:1-82, K7A); experiment: EMSA; 4 uM; conditions: tags: N-terminal His6; chain copies: 2; label: 32P
# (His)6MazE(R16A) = (His)6MazE(R16A) (Escherichia coli, UniProt P0AE72 SEQ:1-82, R16A); experiment: EMSA; 4 uM; conditions: tags: N-terminal His6; chain copies: 2; label: 32P
# (His)6MazE(R8A) = (His)6MazE(R8A) (Escherichia coli, UniProt P0AE72 SEQ:1-82, R8A); experiment: EMSA; 4 uM; conditions: tags: N-terminal His6; chain copies: 2; label: 32P
# (His)6MazE(S12A) = (His)6MazE(S12A) (Escherichia coli, UniProt P0AE72 SEQ:1-82, S12A); experiment: EMSA; 4 uM; conditions: tags: N-terminal His6; chain copies: 2; label: 32P
# MazE-MazF(His)6 complex = MazE-MazF(His)6 complex (Escherichia coli, UniProt P0AE72;P0AE70 SEQ:1-82,SEQ:1-111); experiment: EMSA; 1 uM complex; conditions: tags: C-terminal His6 on MazF; chain copies: MazF2-MazE2-MazF2 (stated); label: 32P
# (His)6MazE(R48A) = (His)6MazE(R48A) (Escherichia coli, UniProt P0AE72 SEQ:1-82, R48A); experiment: EMSA; data not shown; conditions: tags: N-terminal His6; chain copies: 2; label: 32P
# (His)6MazE(F53A) = (His)6MazE(F53A) (Escherichia coli, UniProt P0AE72 SEQ:1-82, F53A); experiment: EMSA; data not shown; conditions: tags: N-terminal His6; chain copies: 2; label: 32P
# (His)6MazE(E57Q) = (His)6MazE(E57Q) (Escherichia coli, UniProt P0AE72 SEQ:1-82, E57Q); experiment: EMSA; data not shown; conditions: tags: N-terminal His6; chain copies: 2; label: 32P
# MazF = MazF (Escherichia coli, UniProt P0AE70 SEQ:1-111); experiment: EMSA; no binding up to 20 uM; conditions: tags: untagged; chain copies: 2; label: 32P
# (His)6MazE-MazF complex = (His)6MazE-MazF complex (Escherichia coli, UniProt P0AE72;P0AE70 SEQ:1-82,SEQ:1-111); experiment: EMSA; shift at 0.2 uM MazE, MazE:MazF 1:2; more than ten-fold enhancement over MazE; conditions: tags: N-terminal His6 on MazE; chain copies: MazF2-MazE2-MazF2 (stated); label: 32P
# (His)6MazE = (His)6MazE (Escherichia coli, UniProt P0AE72 SEQ:1-82); experiment: EMSA; discrete shift at 2 uM or higher; smear at 0.4-1.0 uM; 5 mM MgCl2, poly(dI-dC), 4 C; conditions: tags: N-terminal His6; chain copies: 2 (inferred); label: 32P
binder,measurement,setting,value
mazEF promoter 50-bp (dsDNA) DNA 1: GCTCGTATCTACAATGTAGATTGATATATACTGTATCTACATATGATAGC DNA 2: GCTATCATATGTAGATACAGTATATATCAATCTACATTGTAGATACGAGC,binding result,(His)6MazE(K7A),no binding
same,binding result,(His)6MazE(R16A),no binding
same,binding result,(His)6MazE(R8A),no binding
same,binding result,(His)6MazE(S12A),no binding
same,binding result,MazE-MazF(His)6 complex,binds
same,binding result,(His)6MazE(R48A),binds
same,binding result,(His)6MazE(F53A),binds
same,binding result,(His)6MazE(E57Q),binds
same,binding result,MazF,no binding
same,binding result,(His)6MazE-MazF complex,binds
same,binding result,(His)6MazE,binds
